The values below come from patent publication US20260216243A1 (TWAIN THERAPEUTICS PTE, published 2026).

Assay [1] has as its target T1, recombinant human interleukin 9 receptor alpha (hIL9R) fused, at the c-terminal, to a human IgG1 Fc (hIL9R-Fc) (human, UniProt Q01113 41-270).
T1 construct: Bought protein; also called Acro Biosystems, Cat. No. ILR-H5251; not shown: human IgG1 Fc fused at the C-terminal
T1 sequence: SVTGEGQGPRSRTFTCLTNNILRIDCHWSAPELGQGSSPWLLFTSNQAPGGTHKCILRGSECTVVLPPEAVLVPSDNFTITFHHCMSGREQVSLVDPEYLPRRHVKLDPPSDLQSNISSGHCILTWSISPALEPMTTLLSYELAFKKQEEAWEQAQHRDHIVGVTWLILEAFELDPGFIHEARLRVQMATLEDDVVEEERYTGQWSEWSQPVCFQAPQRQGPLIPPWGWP
The experiment in a line: selected from the clones positive in ELISA of periplasmic extracts on coated hIL9R-Fc. An excerpt:
(§1) The antigen used for panning and ELISA screening was the same as the one used for immunization (Acro Biosystems, Cat. No. ILR-H5251), using uncoated blocked wells as negative control (blank) and hIgG1-Fc (Sino Biological, Cat. No. 10702-HNAH) coated wells as reference for Fc specific clones. Out of these 570 colonies tested by ELISA, 90 colonies scored positive for hIL9R-Fc only. Based on sequence data of the positive colonies, 29 different Nanobodies were distinguished, belonging to 14 different CDR3 groups (B-cell lineages)
(In an ELISA, binding on a coated surface is turned into a signal by an enzyme label.)

Assay [2] has as its target T2, hIgG1-Fc (human, UniProt P01857-1 99-330 = IgG part, limits assumed).
T2 construct: domain: Fc; also called Sino Biological, Cat. No. 10702-HNAH
Kind of assay: ELISA, crude periplasmic extracts on hIgG1-Fc coated wells as reference for Fc specific clones.
Source text: as §1

B1: 2SAT57 (VHH)
VHH: QVQLQESGGGLVQAGGSLRLSCAASGSIFSINAMGWFRQAPGKQRELVAVISSGGSTNHADSVKGRFTISRDNAKNTVYLQMNSVKPEDTAVYYCLVATRGGTYEYWGQGTQVTVSS
notes: Screened as soluble Nanobody in crude periplasmic extracts, expressed from pMECS-GG; also called T3; VHH anti-IL-9Rα 2SAT57
For B1, the figures for the binding result in assay [1] and in assay [2] were “binds” and “no binding”, respectively.

B2: 2SAT363 (VHH)
VHH: QVQLQESGGGLVQAGGSLRLSCTVSGSFFNINAMGWYRQAPGKQRELVATITAGGSTKYEDTVKGRFTISGDSAKNTVSLQMNSLKPEDTAVYYCAAWGTRIRDDYWGQGTQVTVSS
notes: Screened as soluble Nanobody in crude periplasmic extracts, expressed from pMECS-GG; also called T2; VHH anti-IL-9Rα 2SAT363
Turning to B2, the values for the binding result in assay [1] and in assay [2] were “binds” and “no binding”, respectively.
